Laboratory results from US20200407704, “FUSION PROTEINS AND METHODS FOR SITE-DIRECTED GENOME EDITING” (The Regents of the University of California, published 2020).

Columns and labels:
[1] = test system: hADAR2d (ADAR2 deaminase domain, hADAR2-D WT) (Homo sapiens); settings: DNA strand of hybrid, 250 nM, 60 min
[2] = test system: HBD-ADAR2 deaminase fusion (RNase H1 hybrid binding domain) (Homo sapiens); settings: DNA strand of hybrid, 250 nM, 60 min
hADAR1d E1008Q = target: T1, hADAR1d E1008Q (Homo sapiens, UniProt P55265 SEQ:833-1226); experiment: 500 nM, 2 h; settings: dA-C mismatch
T1 chain: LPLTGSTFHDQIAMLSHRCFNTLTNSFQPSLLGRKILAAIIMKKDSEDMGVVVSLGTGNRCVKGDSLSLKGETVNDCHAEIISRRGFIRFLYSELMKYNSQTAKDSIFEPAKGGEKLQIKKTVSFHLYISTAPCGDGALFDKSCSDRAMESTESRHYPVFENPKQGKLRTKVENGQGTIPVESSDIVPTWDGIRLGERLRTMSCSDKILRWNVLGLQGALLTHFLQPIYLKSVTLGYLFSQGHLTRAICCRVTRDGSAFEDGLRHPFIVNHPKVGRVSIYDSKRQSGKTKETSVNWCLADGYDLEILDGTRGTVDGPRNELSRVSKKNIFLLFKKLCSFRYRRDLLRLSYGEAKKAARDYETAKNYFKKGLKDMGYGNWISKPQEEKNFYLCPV
Protocol: M13 genomic ssDNA (New England Biolabs) was hybridized with the corresponding guide RNAs. The guide RNA to genomic DNA molar ratio was 20:1 for each hybridization. Deamination reactions were carried out as previously described (21) with the following modifications. The final reaction volume was 10 μL. hADAR1d E1008Q was used for the reaction and the final enzyme concentration was 500 nM. The final RNA concentration was 2.8 nM. The final reaction solution contained 13 mM Tris-HCl, pH 7.2, 3.6% glycerol, 1.2 mM EDTA, 0.002% NP-40, 40.5 mM potassium glutamate, 12.5 mM KCl, 6 mM NaCl, 0.6 mM DTT, 160 units/mL RNasin, and 1 μg/mL yeast tRNA. Reactions were quenched by adding 190 μL 95° C. nuclease-free water followed by incubation at 95° C. for 5 minutes. The target regions of the reaction products were PCR amplified with primers using GoTaq® DNA Polymerase (Promega). PCR products were purified by agarose gel, extracted using a QIAquick Gel Extraction Kit (Qiagen), and sequenced with the forward PCR primers. The sequencing peak heights were measured with Chromas for calculating the editing level. Each experiment was carried out in triplicate. The editing level for the corresponding zero time point was subtracted from each data point as background subtraction. Statistical significance between groups was determined by t tests using QuickCalcs (GraphPad Software).

Row | Molecule | activity [1] [% edited] | activity [2] [% edited] | activity (hADAR1d E1008Q) [% edited]
1 | DNA/RNA hybrid duplex used with HBD fusion | 35 | 90 | 
2 | M13 TAG site + guide RNA (DNA:RNA) DNA: CCTCGCGTTCTTAGAATACCGGAT RNA: AUCCGGUAUUCCAAGAACGCGAGG |  |  | 94
3 | M13 AAG site + guide RNA (DNA:RNA) DNA: CCAAATGGCTCAAGTCGGTGACGG RNA: CCGUCACCGACCUGAGCCAUUUGG |  |  | 81
4 | M13 CAC site + guide RNA (DNA:RNA) DNA: CTTTCTATTCTCACTCCGCTGAAA RNA: UUUCAGCGGAGCGAGAAUAGAAAG |  |  | 53
5 | M13 GAA site + guide RNA (DNA:RNA) DNA: AGGCCAGACGCGAATTATTTTTGA RNA: UCAAAAAUAAUCCGCGUCUGGCCU |  |  | 27
